Source: IntAct's records for PubMed 19415799

B1: Cell division protein FtsZ (Escherichia coli (strain K12)), P0A9A6 (parent)
chain: MFEPMELTNDAVIKVIGVGGGGGNAVEHMVRERIEGVEFFAVNTDAQALRKTAVGQTIQIGSGITKGLGAGANPEVGRNAADEDRDALRAALEGADMVFIAAGMGGGTGTGAAPVVAEVAKDLGILTVAVVTKPFNFEGKKRMAFAEQGITELSKHVDSLITIPNDKLLKVLGRGISLLDAFGAANDVLKGAVQGIAELITRPGLMNVDFADVRTVMSEMGYAMMGSGVASGEDRAEEAAEMAISSPLLEDIDLSGARGVLVNITAGFDLRLDEFETVGNTIRAFASDNATVVIGTSLDPDMNDELRVTVVATGIGMDKRPEITLVTNKQVQQPVMDRYQQHGMAPLTQEQKPVAKVVNDNAPQTAKEPDYLDIPAFLRKQAD
partner: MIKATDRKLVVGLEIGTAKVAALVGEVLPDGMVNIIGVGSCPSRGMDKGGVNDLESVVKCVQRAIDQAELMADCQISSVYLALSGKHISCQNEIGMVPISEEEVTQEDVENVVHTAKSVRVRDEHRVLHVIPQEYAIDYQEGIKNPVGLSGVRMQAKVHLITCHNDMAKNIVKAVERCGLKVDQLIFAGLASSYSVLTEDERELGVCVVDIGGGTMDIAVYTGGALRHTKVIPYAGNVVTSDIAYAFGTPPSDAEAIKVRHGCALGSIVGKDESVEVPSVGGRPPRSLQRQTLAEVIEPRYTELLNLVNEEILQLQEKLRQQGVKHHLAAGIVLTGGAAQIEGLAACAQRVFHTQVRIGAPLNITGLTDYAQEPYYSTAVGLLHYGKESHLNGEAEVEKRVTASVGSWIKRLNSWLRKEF

Variants of: B1
Conditions: with ftsa_ecoli ftsA

Q: With MFEPMELTNDAVIKVIGVGGGGGNAVEHMVRERIEGVEFFAVNTDAQALRKTAVGQTIQIGSGITKGLGAGANPEVGRNAADEDRDALRAALEGADMVFIAAGMGGGTGTGAAPVVAEVAKDLGILTVAVVTKPFNFEGKKRMAFAEQGITELSKHVDSLITIPNDKLLKVLGRGISLLDAFGAANDVLKGAVQGIAELITRPGLMNVDFADVRTVMSEMGYAMMGSGVASGEDRAEEAAEMAISSPLLEDIDLSGARGVLVNITAGFDLRLDEFETVGNTIRAFASDNATVVIGTSLDPDMNDELRVTVVATGIGMDKRPEITLVTNKQVQQPVMDRYQQHGMAPLTQEQKPVAKVVNDNAPQTAKEPDYLDVPAFLRKQAD [I374V] as the variant, how does the “effect of a mutation on the interaction” value read?
A: decreasing interaction strength
